Experimental data taken from patent US11278600B2, “Human alpha-galactosidase variants” (Codexis, Inc., priority 2014, dated 2022).

How the values were obtained:
Type in all cases: biochemical
[1] = HTP-analysis of supernatants pretreated with base (MUGal hydrolysis); conditions: challenge at pH 7.1; activity of the variant/activity of WT GLA (SEQ ID NO: 5); yeast supernatant
How it was run: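 GLA variants were secreted by transformed INVSc1 yeast grown 66-84 h at 30° C. Supernatants were exposed to neutral-to-basic buffers (pH 7.0-9.7) at 37° C for 1-18 h, then assayed with MUGal in acidic citrate/McIlvaine buffer, with fluorescence read after quenching.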

[2] = HTP-analysis of yeast culture supernatants, no challenge (MUGal hydrolysis); conditions: activity of the variant/activity of WT GLA (SEQ ID NO: 5), yeast supernatant
How it was run: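 Activity read as 4-methylumbelliferyl α-D-galactopyranoside hydrolysis: fluorescence (355/448 nm) after sodium carbonate stop, following 30-180 min at 37° C with 2 mM MUGal stock at pH 4.6–4.8. Enzyme source is unchallenged culture supernatant of INVSc1 yeast expressing GLA variants, grown 66-84 h at 30° C.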

[3] = HTP-analysis of supernatants pretreated with acid (MUGal hydrolysis); conditions: challenge at pH 4.2; activity of the variant/activity of WT GLA (SEQ ID NO: 5); yeast supernatant
How it was run: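 Fluorescence of MUGal hydrolysis (Ex. 355 nm, Em. 448 nm) is read after sodium carbonate quench. The enzyme source is INVSc1 yeast culture supernatant, first exposed to pH 3.3-4.3 McIlvaine buffer at 37° C. for 1-3 h, then reacted at pH 4.8 for 30-180 minutes.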

Molecule	Relative Activity of GLA Variants After Challenge at pH 7.1 [1]	Relative Activity of GLA Variants After No Challenge (NC) [2]	Relative Activity of GLA Variants After Challenge at pH 4.2 [3]
164 (protein, Synthetic Polypeptide sequence of Variant No. 164 of mature Human GLA) LDNGLARTPTMGWLHWERFMCNLDCQEEPDSCIDEKLFMEMAELMVSEGWKDAGYEYLCIDDCWMAPQRDSEGRLQADPQRFPHGIRQLANYVHSKGLKLGIYADVGNKTCAGFPGSFGYYDIDAQTFADWGVDLLKFDGCYCDSLENLADGYKHMSLALNRTGRSIVYSCEWPLYMWPFQKPNYTEIRQYCNHWRNFADIDDSWKSIKSILDWTSFNQERIVDVAGPGGWNDPDMLVIGNFGLSWNQQVTQMALWAIMAAPLFMSNDLRHISPQAKALLQDKDVIAINQDPLGKQGYQLRQGDNFEVWERPLSGLAWAVAMINRQEIGGPRSYTIAVASLGKGVACNPACFITQLLPVKRKLGFYEWTSRLRSHINPTGTVLLQLENTMQPSKDLLL	− (− = <0.5 relative activity to WT GLA (SEQ ID NO: 5))	+ (+ = 0.5 to 1.5 relative activity over WT GLA (SEQ ID NO: 5))	− (− = <0.5 relative activity to WT GLA (SEQ ID NO: 5))
165 (protein, Synthetic Polypeptide sequence of Variant No. 165 of mature Human GLA) LDNGLARTPTMGWLHWERFMCNLDCQEEPDSCIGEKLFMEMAELMVSEGWKDAGYEYLCIDDCWMAPQRDSEGRLQADPQRFPHGIRQLANYVHSKGLKLGIYADVGNKTCAGFPGSFGYYDIDAQTFADWGVDLLKFDGCYCDSLENLADGYKHMSLALNRTGRSIVYSCEWPLYMWPFQKPNYTEIRQYCNHWRNFADIDDSWKSIKSILDWTSFNQERIVDVAGPGGWNDPDMLVIGNFGLSWNQQVTQMALWAIMAAPLFMSNDLRHISPQAKALLQDKDVIAINQDPLGKQGYQLRQGDNFEVWERPLSGLAWAVAMINRQEIGGPRSYTIAVASLGKGVACNPACFITQLLPVKRKLGFYEWTSRLRSHINPTGTVLLQLENTMQMSKDLLL	− (− = <0.5 relative activity to WT GLA (SEQ ID NO: 5))	+ (+ = 0.5 to 1.5 relative activity over WT GLA (SEQ ID NO: 5))	− (− = <0.5 relative activity to WT GLA (SEQ ID NO: 5))
166 (protein, Synthetic Polypeptide sequence of Variant No. 166 of mature Human GLA) LDNGLARTPTMGWLHWERFMCNLDCQEEPDSCIHEKLFMEMAELMVSEGWKDAGYEYLCIDDCWMAPQRDSEGRLQADPQRFPHGIRQLANYVHSKGLKLGIYADVGNKTCAGFPGSFGYYDIDAQTFADWGVDLLKFDGCYCDSLENLADGYKHMSLALNRTGRSIVYSCEWPLYMWPFQKPNYTEIRQYCNHWRNFADIDDSWKSIKSILDWTSFNQERIVDVAGPGGWNDPDMLVIGNFGLSWNQQVTQMALWAIMAAPLFMSNDLRHISPQAKALLQDKDVIAINQDPLGKQGYQLRQGDNFEVWERPLSGLAWAVAMINRQEIGGPRSYTIAVASLGKGVACNPACFITQLLPVKRKLGFYEWTSRLRSHINPTGTVLLQLENTRQMSKDLLL	+ (+ = 0.5 to 1.5 relative activity over WT GLA (SEQ ID NO: 5))	++ (++ = >1.5 to 2.5 relative activity over WT GLA (SEQ ID NO: 5))	+ (+ = 0.5 to 1.5 relative activity over WT GLA (SEQ ID NO: 5))
167 (protein, Synthetic Polypeptide sequence of Variant No. 16 of mature Human GLA) LDNGLARTPTMGWLHWERFMCNLDCQEEPDSCIREKLFMEMAELMVSEGWKDAGYEYLCIDDCWMAPQRDSEGRLQADPQRFPHGIRQLANYVHSKGLKLGIYADVGNKTCAGFPGSFGYYDIDAQTFADWGVDLLKFDGCYCDSLENLADGYKHMSLALNRTGRSIVYSCEWPLYMWPFQKPNYTEIRQYCNHWRNFADIDDSWKSIKSILDWTSFNQERIVDVAGPGGWNDPDMLVIGNFGLSWNQQVTQMALWAIMAAPLFMSNDLRHISPQAKALLQDKDVIAINQDPLGKQGYQLRQGDNFEVWERPLSGLAWAVAMINRQEIGGPRSYTIAVASLGKGVACNPACFITQLLPVKRKLGFYEWTSRLRSHINPTGTVLLQLENTMQMSKDLLL	+ (+ = 0.5 to 1.5 relative activity over WT GLA (SEQ ID NO: 5))	+ (+ = 0.5 to 1.5 relative activity over WT GLA (SEQ ID NO: 5))	+ (+ = 0.5 to 1.5 relative activity over WT GLA (SEQ ID NO: 5))
168 (protein, Synthetic Polypeptide sequence of Variant No. 168 of mature Human GLA) LDNGLARTPTMGWLHWERFMCNLDCQEEPDSCISEKLFMEMAELMVSEGWKDAGYEYLCIDDCWMAPQRDSEGRLQADPQRFPHGIRQLANYVHSKGLKLGIYADVGNKTCAGFPGSFGYYDIDAQTFADWGVDLLKFDGCYCDSLENLADGYKHMSLALNRTGRSIVYSCEWPLYMWPFQKPNYTEIRQYCNHWRNFADIDDSWKSIKSILDWTSFNQERIVDVAGPGGWNDPDMLVIGNFGLSWNQQVTQMALWAIMAAPLFMSNDLRHISPQAKALLQDKDVIAINQDPLGKQGYQLRQGDNFEVWERPLSGLAWAVAMINRQEIGGPRSYTIAVASLGKGVACNPACFITQLLPVKRKLGFYEWTSRLRMHINPTGTVLLQLENTMQMSKDLLL	++ (++ = >1.5 to 2.5 relative activity over WT GLA (SEQ ID NO: 5))	++ (++ = >1.5 to 2.5 relative activity over WT GLA (SEQ ID NO: 5))	++ (++ = >1.5 to 2.5 relative activity over WT GLA (SEQ ID NO: 5))
169 (protein, Synthetic Polypeptide sequence of Variant No. 169 of mature Human GLA) LDNGLARTPTMGWLHWERFMCNLDCQEEPDSCISEKLFMEMAELMVSEGWKDAGYEYLCIDDCWMAPQRDSEGRLQADPQRFPHGIRQLANYVHSKGLKLGIYADVGNKTCAGFPGSFGYYDIDAQTFADWGVDLLKFDGCYCDSLENLADGYKHMSLALNRTGRSIVYSCEWPLYMWPFQKPNYTEIRQYCNHWRNFADIDDSWKSIKSILDWTSFNQERIVDVAGPGGWNDPDMLVIGNFGLSWNQQVTQMALWAIMAAPLFMSNDLRHISPQAKALLQDKDVIAINQDPLGKQGYQLRQGDNFEVWERPLSGLAWAVAMINRQEIGGPRSYTIAVASLGKGVACNPACFITQLLPVKRKLGFYEWTSRLRTHINPTGTVLLQLENTMQMSKDLLL	++ (++ = >1.5 to 2.5 relative activity over WT GLA (SEQ ID NO: 5))	++ (++ = >1.5 to 2.5 relative activity over WT GLA (SEQ ID NO: 5))	++ (++ = >1.5 to 2.5 relative activity over WT GLA (SEQ ID NO: 5))
170 (protein, Synthetic Polypeptide sequence of Variant No. 170 of mature Human GLA) LDNGLARTPTMGWLHWERFMCNLDCQEEPDSCISEKLFMEMAELMVSEGWKDAGYEYLCIDDCWMAPQRDSEGRLQADPQRFPHGIRQLANYVHSKGLKLGIYADVGNKTCAGFPGSFGYYDIDAQTFADWGVDLLKFDGCYCDSLENLADGYKHMSLALNRTGRSIVYSCEWPLYMWPFQKPNYTEIRQYCNHWRNFADIDDSWKSIKSILDWTSFNQERIVDVAGPGGWNDPDMLVIGNFGLSWNQQVTQMALWAIMAAPLFMSNDLRHISPQAKALLQDKDVIAINQDPLGKQGYQLRQGDNFEVWERPLSGLAWAVAMINRQEIGGPRSYTIAVASLGKGVACNPACFITQLLPVKRKLGFYEWTSRLRSHINPTGTVLLQLENTMQMEKDLLL	++ (++ = >1.5 to 2.5 relative activity over WT GLA (SEQ ID NO: 5))	++ (++ = >1.5 to 2.5 relative activity over WT GLA (SEQ ID NO: 5))	++ (++ = >1.5 to 2.5 relative activity over WT GLA (SEQ ID NO: 5))
171 (protein, Synthetic Polypeptide sequence of Variant No. 171 of mature Human GLA) LDNGLARTPTMGWLHWERFMCNLDCQEEPDSCISEKLFMEMAELMVSEGWKDAGYEYLCIDDCWMAPQRDSEGRLQADPQRFPHGIRQLANYVHSKGLKLGIYADVGNKTCAGFPGSFGYYDIDAQTFADWGVDLLKFDGCYCDSLENLADGYKHMSLALNRTGRSIVYSCEWPLYMWPFQKPNYTEIRQYCNHWRNFADIDDSWKSIKSILDWTSFNQERIVDVAGPGGWNDPDMLVIGNFGLSWNQQVTQMALWAIMAAPLFMSNDLRHISPQAKALLQDKDVIAINQDPLGKQGYQLRQGDNFEVWERPLSGLAWAVAMINRQEIGGPRSYTIAVASLGKGVACNPACFITQLLPVKRKLGFYEWTSRLRSHINPTGTVLLQLENTMQMGKDLLL	++ (++ = >1.5 to 2.5 relative activity over WT GLA (SEQ ID NO: 5))	++ (++ = >1.5 to 2.5 relative activity over WT GLA (SEQ ID NO: 5))	++ (++ = >1.5 to 2.5 relative activity over WT GLA (SEQ ID NO: 5))
